Measurements reported in patent US20210023171A1 (published 2021).
Where a chain is given by its changes, count along the chain named. Like-named read-outs stand apart in the source and are kept apart here. No end group written: not given here. *: point of attachment. DOTA = O=C(O)CN1CCN(CC(=O)O)CCN(CC(=O)*)CCN(CC(=O)O)CC1

Columns and labels:
[1] = molecular target: T1, αvβ3 integrin on cells (U87MG glioblastoma cells; K562-αvβ3 cells) (UniProt P06756 31-1048; P05106 27-788); assay: direct equilibrium titration on U87MG cells, anti-His flow cytometry
T1 construct: whole, on cells; also called cell surface αvβ3 integrin

[2] = molecular target: T1, αvβ3 integrin on cells (U87MG …); assay: competition of synthetic 7C by recombinant 7C on U87MG cells, performed analogously
[3] = molecular target: T1, αvβ3 integrin on cells (U87MG …); assay: direct equilibrium titration on K562-αvβ3 cells, anti-His flow cytometry
[4] = molecular target: T2, αiibβ3 integrin on K562 cells stably transfected with αiibβ3 (UniProt P08514 32-1039; P05106 27-788); assay: titration on K562-αiibβ3 cells up to 5 µM, not saturated
T2 construct: whole, on cells; also called K562-αiibβ3; K562-αiiβ3

[5] = molecular target: T1, αvβ3 integrin on cells (U87MG …); assay: cell-based or functional assay
[6] = molecular target: T1, αvβ3 integrin on cells (U87MG …); assay: direct equilibrium titration on U87MG cells
[7] = molecular target: T1, αvβ3 integrin on cells (U87MG …)
[8] = molecular target: T1, αvβ3 integrin on cells (U87MG …); assay: cell-based or functional assay; remark: listed apart in the source
[9] = molecular target: αiibβ3 integrin (soluble / detergent-solubilized) (UniProt P08514 32-1039; P05106 27-788); assay: competition with ^125I-echistatin on plate-coated detergent-solubilized integrin
[10] = molecular target: α5β1 integrin (detergent-solubilized) (UniProt P08648 42-1049; P05556 21-798); assay: as above
[11] = molecular target: T3, αvβ3 integrin (soluble / detergent-solubilized) (UniProt P06756 31-1048; P05106 27-788); assay: as above
T3 construct: also called integrin αvβ3; soluble αvβ3 integrin

[12] = molecular target: αvβ5 integrin (soluble / detergent-solubilized) (UniProt P06756 31-1048; P18084 24-799); assay: as above
[13] = molecular target: T3, αvβ3 integrin (soluble / …); assay: yeast display flow cytometry estimate; integrin not given
[14] = molecular target: T1, αvβ3 integrin on cells (U87MG …); assay: competition with ^125I-echistatin on U87MG cells (also express αvβ5, α5β1); unlabeled peptide
[15] = molecular target: T1, αvβ3 integrin on cells (U87MG …); assay: competition with ^125I-echistatin on U87MG cells
[16] = molecular target: T1, αvβ3 integrin on cells (U87MG …); assay: approximate value quoted with the imaging results; U87MG competition assay presumed
[17] = molecular target: T1, αvβ3 integrin on cells (U87MG …); assay: competing off ^125I-echistatin, U87MG cells
[18] = molecular target: T1, αvβ3 integrin on cells (U87MG …); assay: competition on U87MG cells against 20 nM recombinant FLAG/His 7C, anti-FLAG flow cytometry

T1 sequence (P06756 31-1048, chain 1 of 2): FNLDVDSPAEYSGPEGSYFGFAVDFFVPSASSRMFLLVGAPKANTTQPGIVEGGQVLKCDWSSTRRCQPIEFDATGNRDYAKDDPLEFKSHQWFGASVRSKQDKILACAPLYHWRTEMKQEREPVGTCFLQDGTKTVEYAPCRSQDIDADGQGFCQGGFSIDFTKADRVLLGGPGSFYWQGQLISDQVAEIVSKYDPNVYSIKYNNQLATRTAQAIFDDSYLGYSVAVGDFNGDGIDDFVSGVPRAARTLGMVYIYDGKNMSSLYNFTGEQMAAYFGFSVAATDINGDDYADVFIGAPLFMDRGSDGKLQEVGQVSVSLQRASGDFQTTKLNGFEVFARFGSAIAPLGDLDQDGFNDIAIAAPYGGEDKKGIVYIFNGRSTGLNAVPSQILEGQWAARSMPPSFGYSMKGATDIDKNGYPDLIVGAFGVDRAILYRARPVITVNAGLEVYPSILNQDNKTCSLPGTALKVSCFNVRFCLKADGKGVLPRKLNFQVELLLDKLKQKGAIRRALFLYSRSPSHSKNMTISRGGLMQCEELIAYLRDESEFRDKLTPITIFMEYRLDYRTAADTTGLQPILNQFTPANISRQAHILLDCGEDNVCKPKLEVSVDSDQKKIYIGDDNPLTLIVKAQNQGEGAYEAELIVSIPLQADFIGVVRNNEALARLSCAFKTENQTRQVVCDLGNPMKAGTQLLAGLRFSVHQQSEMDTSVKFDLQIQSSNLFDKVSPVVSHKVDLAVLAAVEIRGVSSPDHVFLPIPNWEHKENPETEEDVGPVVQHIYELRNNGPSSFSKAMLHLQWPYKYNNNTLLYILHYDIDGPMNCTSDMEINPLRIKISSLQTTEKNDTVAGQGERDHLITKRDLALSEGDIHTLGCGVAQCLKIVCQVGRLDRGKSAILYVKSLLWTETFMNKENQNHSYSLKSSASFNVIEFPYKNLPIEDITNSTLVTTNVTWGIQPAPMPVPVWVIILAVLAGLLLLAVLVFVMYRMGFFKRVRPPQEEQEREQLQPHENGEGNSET
T1 sequence (P05106 27-788, chain 2 of 2): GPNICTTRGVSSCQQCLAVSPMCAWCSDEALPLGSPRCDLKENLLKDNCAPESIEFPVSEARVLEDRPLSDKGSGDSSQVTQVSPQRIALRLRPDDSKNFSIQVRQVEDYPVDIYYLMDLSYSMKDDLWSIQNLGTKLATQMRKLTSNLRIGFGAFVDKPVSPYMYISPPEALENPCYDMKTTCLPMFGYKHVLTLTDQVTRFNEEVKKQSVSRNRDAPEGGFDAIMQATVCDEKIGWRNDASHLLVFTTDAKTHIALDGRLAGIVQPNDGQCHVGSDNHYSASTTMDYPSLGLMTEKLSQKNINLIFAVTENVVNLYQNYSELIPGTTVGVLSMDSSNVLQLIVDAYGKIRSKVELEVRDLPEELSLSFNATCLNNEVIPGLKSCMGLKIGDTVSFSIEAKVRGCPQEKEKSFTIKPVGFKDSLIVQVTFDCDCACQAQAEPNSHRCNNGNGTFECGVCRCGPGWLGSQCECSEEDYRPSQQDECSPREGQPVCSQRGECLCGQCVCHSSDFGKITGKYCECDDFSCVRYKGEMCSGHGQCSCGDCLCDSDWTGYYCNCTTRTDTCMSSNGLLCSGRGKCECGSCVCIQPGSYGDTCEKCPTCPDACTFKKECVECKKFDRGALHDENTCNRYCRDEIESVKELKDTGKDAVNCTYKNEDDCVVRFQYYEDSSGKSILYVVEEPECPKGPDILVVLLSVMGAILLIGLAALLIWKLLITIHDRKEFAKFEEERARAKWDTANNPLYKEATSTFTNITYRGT
T3 sequence (P06756 31-1048, chain 1 of 2): as the sequence (P06756 31-1048, chain 1 of 2) above
T3 sequence (P05106 27-788, chain 2 of 2): as the sequence (P05106 27-788, chain 2 of 2) above
Sequence of αvβ5 integrin (soluble / detergent-solubilized) (P06756 31-1048, chain 1 of 2): as the sequence (P06756 31-1048, chain 1 of 2) above
Sequence of αvβ5 integrin (soluble / detergent-solubilized) (P18084 24-799, chain 2 of 2): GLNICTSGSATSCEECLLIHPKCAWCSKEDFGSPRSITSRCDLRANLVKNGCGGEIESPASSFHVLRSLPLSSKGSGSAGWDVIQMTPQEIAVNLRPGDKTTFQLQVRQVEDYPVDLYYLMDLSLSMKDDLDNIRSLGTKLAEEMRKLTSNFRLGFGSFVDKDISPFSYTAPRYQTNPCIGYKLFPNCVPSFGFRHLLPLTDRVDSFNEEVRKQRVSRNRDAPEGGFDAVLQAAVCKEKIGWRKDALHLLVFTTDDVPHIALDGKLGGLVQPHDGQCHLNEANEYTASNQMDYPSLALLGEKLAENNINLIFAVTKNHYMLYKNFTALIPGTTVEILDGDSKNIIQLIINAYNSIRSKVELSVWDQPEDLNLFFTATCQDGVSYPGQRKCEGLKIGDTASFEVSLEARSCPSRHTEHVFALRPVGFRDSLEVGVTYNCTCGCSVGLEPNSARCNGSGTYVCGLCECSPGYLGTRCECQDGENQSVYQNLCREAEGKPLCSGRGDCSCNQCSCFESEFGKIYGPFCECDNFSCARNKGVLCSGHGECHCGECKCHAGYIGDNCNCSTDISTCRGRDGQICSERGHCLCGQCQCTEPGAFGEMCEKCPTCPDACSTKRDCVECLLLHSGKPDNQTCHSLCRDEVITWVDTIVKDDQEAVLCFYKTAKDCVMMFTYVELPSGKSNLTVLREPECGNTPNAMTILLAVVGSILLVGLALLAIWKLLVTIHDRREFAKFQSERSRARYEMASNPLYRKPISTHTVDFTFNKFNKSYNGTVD
Sequence of α5β1 integrin (detergent-solubilized) (P08648 42-1049, chain 1 of 2): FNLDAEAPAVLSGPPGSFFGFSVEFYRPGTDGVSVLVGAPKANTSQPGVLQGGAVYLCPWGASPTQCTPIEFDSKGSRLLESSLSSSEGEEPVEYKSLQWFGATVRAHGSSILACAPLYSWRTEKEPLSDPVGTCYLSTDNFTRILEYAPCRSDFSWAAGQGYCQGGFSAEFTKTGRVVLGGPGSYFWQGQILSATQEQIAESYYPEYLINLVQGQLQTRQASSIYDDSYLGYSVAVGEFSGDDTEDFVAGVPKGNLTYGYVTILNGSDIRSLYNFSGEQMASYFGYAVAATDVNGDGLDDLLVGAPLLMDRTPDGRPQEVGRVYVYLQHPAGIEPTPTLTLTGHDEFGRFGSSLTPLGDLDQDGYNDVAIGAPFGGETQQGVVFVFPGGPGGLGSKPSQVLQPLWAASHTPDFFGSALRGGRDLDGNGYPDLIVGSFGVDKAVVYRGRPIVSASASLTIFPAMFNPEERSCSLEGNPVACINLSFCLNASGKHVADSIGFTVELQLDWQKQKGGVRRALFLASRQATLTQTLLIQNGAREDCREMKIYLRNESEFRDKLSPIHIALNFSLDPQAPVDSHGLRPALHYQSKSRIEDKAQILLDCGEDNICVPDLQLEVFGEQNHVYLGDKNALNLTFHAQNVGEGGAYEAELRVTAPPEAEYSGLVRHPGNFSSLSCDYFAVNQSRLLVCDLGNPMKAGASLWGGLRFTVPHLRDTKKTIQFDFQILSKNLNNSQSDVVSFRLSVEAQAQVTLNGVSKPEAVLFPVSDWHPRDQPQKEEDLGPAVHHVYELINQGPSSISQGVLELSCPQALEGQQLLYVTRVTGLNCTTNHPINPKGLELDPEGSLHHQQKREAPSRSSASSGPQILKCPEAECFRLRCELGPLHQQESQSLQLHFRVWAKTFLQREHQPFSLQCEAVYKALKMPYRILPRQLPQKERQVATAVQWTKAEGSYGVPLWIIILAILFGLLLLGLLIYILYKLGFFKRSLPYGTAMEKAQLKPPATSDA
Sequence of α5β1 integrin (detergent-solubilized) (P05556 21-798, chain 2 of 2): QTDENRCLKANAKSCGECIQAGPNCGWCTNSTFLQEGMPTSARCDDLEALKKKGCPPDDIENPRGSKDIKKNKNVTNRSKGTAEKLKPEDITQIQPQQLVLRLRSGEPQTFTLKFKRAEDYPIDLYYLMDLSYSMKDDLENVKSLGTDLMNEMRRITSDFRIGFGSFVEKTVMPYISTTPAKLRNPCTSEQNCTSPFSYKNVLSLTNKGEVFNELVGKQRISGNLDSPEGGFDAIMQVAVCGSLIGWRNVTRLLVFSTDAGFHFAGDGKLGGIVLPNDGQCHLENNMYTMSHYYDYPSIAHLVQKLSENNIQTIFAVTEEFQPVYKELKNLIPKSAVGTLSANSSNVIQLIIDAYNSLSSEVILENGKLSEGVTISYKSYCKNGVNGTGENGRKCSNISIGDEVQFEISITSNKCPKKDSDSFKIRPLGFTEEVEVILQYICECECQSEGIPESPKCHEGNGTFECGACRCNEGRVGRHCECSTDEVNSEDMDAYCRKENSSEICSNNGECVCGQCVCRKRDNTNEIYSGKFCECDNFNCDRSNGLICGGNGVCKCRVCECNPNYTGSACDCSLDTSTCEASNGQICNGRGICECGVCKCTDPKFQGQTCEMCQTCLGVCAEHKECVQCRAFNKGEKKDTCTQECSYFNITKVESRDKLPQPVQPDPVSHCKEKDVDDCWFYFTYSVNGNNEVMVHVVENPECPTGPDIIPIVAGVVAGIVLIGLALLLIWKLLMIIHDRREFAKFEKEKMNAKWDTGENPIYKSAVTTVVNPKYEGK

B1: recombinant AgRP peptide 7C (FLAG and hexahistidine tagged) (peptide)
chain: DYKDDDDKGCVRLHESCLGQQVPCCDPAATCYCYGRGDNDLRCYCRHHHHHH
**Q.** B1 was tested. Which Kd [1] did it give?
**A.** 1.8 nM

**Q.** What about the IC50 [2] of the same binder?
**A.** 23 nM

**Q.** What about the Kd [3] of the same binder?
**A.** 2.4 nM

**Q.** And the Kd [4]?
**A.** > 100 nM

**Q.** What about the “adhesion (IC50; nM) of K562-αvβ3 cells to vitronectin-coated wells” value (shortened to “adhesion (IC50; nM) of K562-αvβ3 cells”) [5] of the same binder?
**A.** 12 nM

B2: recombinant engineered AgRP peptide 7A (FLAG and hexahistidine tagged) (peptide)
chain: B1 chain with Y34S, R42V
notes: also called 7A (5E); 5E
**Q.** How did the Kd [1] turn out when B2 was run?
**A.** 0.78 nM

**Q.** What about the Kd [3] of the same binder?
**A.** 0.89 nM

**Q.** What about the Kd [4] of the same binder?
**A.** > 100 nM

**Q.** And the “fold improvement over the worst binder, 6C” value [6]?
**A.** 17 fold

**Q.** And the “adhesion (IC50; nM) of K562-αvβ3 cells” value [5]?
**A.** 61 nM

**Q.** How did the IC50 [7] turn out when QCESGPCCRNCKFLKEGTICKRARGDDMDDYCNGKTCDCPRNPHKGPAT (ligand, ends and bridges not checked; cysteine pairing not given here) [echistatin (unlabeled)] was run?
**A.** 4.9 nM

**Q.** And the “U87MG cell adhesion to vitronectin, IC50” value [8]?
**A.** 5.8 nM

**Q.** And the “adhesion (IC50; nM) of K562-αvβ3 cells” value [5]?
**A.** 3.2 nM

**Q.** What does the source list for {DOTA}-GCVTGRDGSPASSCSQDSDCLAGCVCGPNGFCG (also: cystine-knot disulfides, pairing not given here) [DOTA-conjugated FN-RDG2]?
**A.** binding result [9]: no binding; binding result [10]: no binding; binding result [11]: no binding; binding result [12]: no binding

**Q.** How did the Kd [13] turn out when GCVTGRGDSPASSCKQDSDCLAGCVCGPNGFCG (also called FN-RGD; RDG-EETI #3) [RGD-EETI #3 (yeast-displayed)] was run?
**A.** 100 to 200 nM

B3: Miniprotein 2.5D (synthetic, soluble) (peptide)
chain: GCPQGRGDWAPTSCSQDSDCRAGCVCGPNGFCG
notes: also called knottin peptide 2.5D; RGD-miniprotein 2.5D
**Q.** What does the source list for B3?
**A.** IC50 [14]: 16 nM; IC50 [15]: 19 nM

**Q.** How did the IC50 [16] turn out when {DOTA}-GCPQGRGDWAPTSCSQDSDCRAGCVCGPNGFCG (cysteine pairing not given here, also called Cu-DOTA-knottin 2.5D) [DOTA-conjugated knottin peptide 2.5D] was run?
**A.** ~20 nM

**Q.** With {DOTA}-GCPRPRGDNPPLTCSQDSDCLAGCVCGPNGFCG (cysteine pairing not given here) [DOTA-conjugated knottin peptide 2.5F] as the binder, how does the IC50 [16] read?
**A.** ~20 nM

**Q.** For {DOTA}-GCVTGRGDSPASSCSQDSDCLAGCVCGPNGFCG (cysteine pairing not given here) [DOTA-conjugated FN-RGD2], which IC50 [16] is on record?
**A.** ~400 nM

B4: synthetic AgRP peptide 7C (without epitope tags) (peptide)
chain: GCVRLHESCLGQQVPCCDPAATCYCYGRGDNDLRCYCR
notes: also called AgRP Clone 7C; Agouti peptide 7C
**Q.** Which IC50 [17] does the source give for B4 here?
**A.** 23 nM

**Q.** What about the IC50 [18] of the same binder?
**A.** 22 nM

**Q.** Which “affinity relative to RGD-EETI #3” value [13] does the source give for GCTGRGDSPASSKCKQDSDCLAGCVCGPNGFCG [RGD-EETI #2 (yeast-displayed)] here?
**A.** ~0.5 fold

B5: FN-RDG (EETI-based polypeptide with a scrambled RDG sequence, negative control) (peptide)
chain: GCVTGRDGSPASSCSQDSDCLAGCVCGPNGFCG
notes: Inferred; also called scrambled FN-RDG; FN-RDG2
**Q.** Which results are given for B5?
**A.** binding result [9]: no binding (tested: 50 nM); binding result [10]: no binding (tested: 50 nM); binding result [11]: no binding (tested: 50 nM); binding result [12]: no binding (tested: 50 nM); binding result [15]: no binding
